The experiment has as its target T1, GST-tagged full-length EhJAB1 (Entamoeba histolytica, UniProt C4LTS3 1-318).
T1 construct: EhJAB1 of Entamoeba histolytica, EHI_050500, full length (gene of 957 base pairs; deletions count to residue 318), codon optimized; Cloned in pDEST15 and sub-cloned in pGEX-4T1; also called GST-EhJAB1; GST-JAB1; source: E. coli BL21(DE3); purified on glutathione-sepharose (BLI)
T1 sequence (looked up): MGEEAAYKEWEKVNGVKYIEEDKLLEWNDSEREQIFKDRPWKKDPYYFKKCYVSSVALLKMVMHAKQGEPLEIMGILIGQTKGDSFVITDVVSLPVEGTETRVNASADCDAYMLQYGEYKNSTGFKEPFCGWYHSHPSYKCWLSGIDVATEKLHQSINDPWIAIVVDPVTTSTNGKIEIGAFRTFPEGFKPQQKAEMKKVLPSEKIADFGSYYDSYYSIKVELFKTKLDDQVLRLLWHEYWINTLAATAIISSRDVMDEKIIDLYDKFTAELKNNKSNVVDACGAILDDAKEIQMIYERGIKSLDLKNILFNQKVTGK
As to the kind of experiment: BLI; GST-EhJAB1 or GST loaded on anti-GST biosensors; EhMIF 5 to 80 nM (2-fold series); 1x DPBS, 0.1% BSA, 0.02% Tween 20; association 600 s, dissociation 600 s. As to conditions: both partners purified.

B1: Entamoeba histolytica MIF (EhMIF), recombinant (natural protein)
chain: MPHALITLSADITEEIKKEIAHESMKILSEVIGKPISYCATQVVTSVGGFGGKIVKSAFIDIKSISGLKGKQEGLSDRYCKLLEQKAGIEGGNIYLNFTEMTGNNWGYDHSTF
The Kd is the constant that tells how readily two partners part at equilibrium. With B1, binding was characterised by a dissociation constant (Kd) of 38.6 nM. That is a double-digit nanomolar value.
